{"source": "paper PMC4450770", "about": "(2016)", "target": "tetraubiquitin chain (Homo sapiens, UniProt P0CG48, tetraubiquitin chain, N-terminal Dylight550-labeled ubiquitin)", "assay": "single-molecule TIRF dwell time"}
{"binder": "26S proteasome (protein) chain 1: MVLESTMVCVDNSEYMRNGDFLPTRLQAQQDAVNIVCHSKTRSNPENNVGLITLANDCEVLTTLTPDTGRILSKLHTVQPKGKITFCTGIRVAHLALKHRQGKNHKMRIIAFVGSPVEDNEKDLVKLAKRLKKEKVNVDIINFGEEEVNTEKLTAFVNTLNGKDGTGSHLVTVPPGPSLADALISSPILAGEGGAMLGLGASDFEFGVDPSADPELALALRVSMEEQRQRQEEEARRAAAASAAEAGIATTGTEDSDDALLKMTISQQEFGRTGLPDLSSMTEEEQIAYAMQMSLQGAEFGQAESADIDASSAMDTSEPAKEEDDYDVMQDPEFLQSVLENLPGVDPNNEAIRNAMGSLASQATKDGKKDKKEEDKK chain 2: TTSGALFPSLVPGSRGASNKYLVEFRAGKMSLKGTTVTPDKRKGLVYIQQTDDSLIHFCWKDRTSGNVEDDLIIFPDDCEFKRVPQCPSGRVYVLKFKAGSKRLFFWMQEPKTDQDEEHCRKVNEYLNNPPMPGALGASGSSGHELSALGGEGGLQSLLGNMSHSQLMQLIGPAGLGGLGGLGALTGPGLASLLGSSGPPGSSSSSSSRSQSAAVTPSSTTSSTRATPAPSAPAAASATSPSPAPSSGNGASTAASPTQPIQLSDLQSILATMNVPAGPAGGQQVDLASVLTPEIMAPILANADVQERLLPYLPSGESLPQTADEIQNTLTSPQFQQALGMFSAALASGQLGPLMCQFGLPAEAVEAANKGDVEAFAKAMQNNAKPEQKEGDTKDKKDEEEDMSLD", "values": [{"measurement": "Kd", "value": 210, "unit": "nM"}]}
